The supplement of paper PMC9732359
± gives the uncertainty stated by the source.

Assay: protein stability index of a GFP-peptide fusion (yeast GPS) (PSI 1-4); higher = more stable; sorted into four equal gates, so the index is relative within each strain
Outline: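 The protein stability index combines read frequencies across sorting gates, each weighted by its gate number and then summed. To obtain those frequencies, a pooled yeast library of GFP fusions to tiled 17-residue yeast protein peptides, on a plasmid also expressing Cherry, was grown to mid-log phase in leucine-free medium. The cells were sorted into four equal gates by GFP/Cherry ratio before plasmid amplification by PCR and Illumina sequencing.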

Row | Sequence | protein stability index (doa10∆) | protein stability index (pdr5∆) | protein stability index (san1∆) | protein stability index (ubr1∆)
1 | MKTQRFVSNMGFDIQKS [SIR4] | 2.63 ± 0.069 | 2.24 ± 0.058 | 2.5 ± 0.083 | 2.01 ± 0.04
2 | MKVLEERNAFLSDYEVL [RPC17] | – | 2.77 ± 0.27 | – | –
3 | MKYTQYPNSSKLKRNSD [LIN1] | 3.17 ± 0.089 | 3.03 ± 0.079 | 2.99 ± 0.05 | 3.14 ± 0.094
4 | MKYVRETSGVTTALLKD [MED8] | 2.72 ± 0.099 | 3.31 ± 0.12 | 3 ± 0.081 | 2.21 ± 0.24
5 | MLGHYLGEFSITYTPVR [RPS15] | 2.27 ± 0.19 | 2.83 ± 0.073 | 2.04 ± 0.16 | 2.86 ± 0.18
6 | MLPPKSVKFTHIAHTLP [SSN2] | 1.57 ± 0.073 | 2 ± 0.05 | 2.05 ± 0.098 | 1.82 ± 0.034
7 | MNAILTDVKLTLPQPRL [SMD1] | 2.98 ± 0.079 | 2.96 ± 0.097 | 2.65 ± 0.079 | 3.11 ± 0.076
8 | MNLQNNVLNQIHQILLP [CSE2] | 2.73 ± 0.062 | 2.73 ± 0.071 | 2.24 ± 0.12 | 3.21 ± 0.12
9 | MNNGSGRYLLTPPDDLH [SRB8] | 2.41 ± 0.06 | 2 ± 0.044 | 2.29 ± 0.13 | 2.63 ± 0.054
10 | MNVTPLDELQWKSPEWI [MED6] | 3.1 ± 0.13 | 3.14 ± 0.1 | 3.19 ± 0.061 | 3.37 ± 0.21
11 | MPGMPNMPGMPKVTPQM [SRP54] | 3.06 ± 0.17 | 3.2 ± 0.21 | 2.65 ± 0.18 | 3.34 ± 0.1
12 | MPGSQINSPMPQQAQMQ [SNF2] | 2.9 ± 0.081 | 2.87 ± 0.096 | 3.05 ± 0.07 | 2.95 ± 0.097
13 | MQIFVKTLTGKTITLEV [RPS31] | 2.48 ± 0.17 | 1.76 ± 0.097 | 2.61 ± 0.13 | 3.13 ± 0.13
14 | MRLIKRVRAESLHSNSF [YJL039C/NUP192] | 2.12 ± 0.11 | 1.64 ± 0.14 | – | 2.44 ± 0.12
15 | MRRFILGTTEGDIKVLD [RPN14] | – | – | – | 1.25 ± 0.18
16 | MRRNSKILNIIKCSQSS [POP5] | 1.92 ± 0.049 | 2.27 ± 0.082 | 2.1 ± 0.073 | 2.21 ± 0.046
17 | MRSKLEKLTLVTLSEIY [CSN9] | 1.56 ± 0.05 | 1.79 ± 0.035 | 1.79 ± 0.07 | 1.79 ± 0.051
18 | MSACVGQQSVEGKRIAF [RPO21] | 2.27 ± 0.26 | 1.97 ± 0.16 | 1.62 ± 0.24 | 2.63 ± 0.24
19 | MSDFVPIDAGLNEAPFP [MCD1] | 3 ± 0.07 | 2.56 ± 0.05 | 2.92 ± 0.051 | 2.97 ± 0.047

Row | Sequence | protein stability index (doa10∆) | protein stability index (pdr5∆) | protein stability index (san1∆) | protein stability index (ubr1∆)
20 | MSDSPLSKRQKRKSAQE [SMC4] | 3.46 ± 0.17 | 3.16 ± 0.11 | 3.04 ± 0.12 | 3.46 ± 0.27
21 | MSEEQDPLLAGLGETSG [RPT4] | 2.91 ± 0.24 | 3.55 ± 0.17 | 3.57 ± 0.17 | 3.25 ± 0.15
22 | MSLEPTQTVSGTPPMLH [DSN1] | 2.78 ± 0.14 | 3 ± 0.12 | 2.92 ± 0.22 | 3 ± 0.1
23 | MSLTTAAPLLALLRENQ [RPN2] | 2.6 ± 0.19 | 3.31 ± 0.25 | 2.8 ± 0.12 | 3.05 ± 0.08
24 | MSTKAQNPMRDLKIEKL [RPL11B] | 3.36 ± 0.16 | 3.25 ± 0.11 | 3.46 ± 0.11 | 3.6 ± 0.23
25 | MTIDLEPIEESSQNNSE [IRR1] | 2.94 ± 0.068 | 3.14 ± 0.056 | 2.67 ± 0.11 | 3.09 ± 0.059
26 | MTQRAIQSAESIKSQKE [SWI3] | 2.27 ± 0.12 | 1.74 ± 0.082 | 2.5 ± 0.14 | 1.7 ± 0.13
27 | MTRSSVLADALNAINNA [RPS22A] | 2.86 ± 0.052 | 3.27 ± 0.056 | 2.72 ± 0.054 | 2.99 ± 0.045
28 | MTSENPDVLLSRVINVV [RRP6] | 1.39 ± 0.12 | 1.61 ± 0.083 | 1.49 ± 0.12 | 2.27 ± 0.14
29 | MVGLVDPDKLKPNDLVG [RPT5] | 2.87 ± 0.097 | 2.94 ± 0.14 | 2.94 ± 0.062 | 2.75 ± 0.069
30 | MVKGLLKSFTESTAGSA [ECM29] | 3.34 ± 0.26 | 2.97 ± 0.18 | 2.81 ± 0.11 | 3.34 ± 0.096
31 | MVQQLSLFGSIGDDGYD [SRB5] | 3.17 ± 0.1 | 3.26 ± 0.13 | 3.16 ± 0.057 | 3.47 ± 0.085
32 | MVSHKTARGKAALERLK [RPL16B] | 2.92 ± 0.21 | 2.74 ± 0.15 | 2.47 ± 0.21 | 2.21 ± 0.16
33 | MYILGMCVSKGNASLKY [YCG1] | 1.79 ± 0.083 | 2.42 ± 0.12 | 1.58 ± 0.11 | 2.17 ± 0.091
34 | NAELLDYLFHLLISLNI [YLR018C/POM34] | 1.79 ± 0.044 | 1.37 ± 0.031 | 1.21 ± 0.068 | 1.28 ± 0.027
35 | NAKDKERLQLLEDVVGA [SMC3] | 3.32 ± 0.19 | 3.38 ± 0.13 | 3.01 ± 0.071 | 3.21 ± 0.11
36 | NAKESNYTDLIWFPEDF [MED1] | 3.06 ± 0.094 | 3.47 ± 0.17 | 3.17 ± 0.12 | 2.28 ± 0.052
37 | NALTVGDFDKFDSLIKV [RPN9] | 2.14 ± 0.13 | 1.59 ± 0.11 | 1.3 ± 0.14 | 1.3 ± 0.11
38 | NAVTAAAANNNIKPVEQ [GAL11] | 2.66 ± 0.064 | 2.66 ± 0.051 | 2.77 ± 0.062 | 2.84 ± 0.039

Row | Sequence | protein stability index (doa10∆) | protein stability index (pdr5∆) | protein stability index (san1∆) | protein stability index (ubr1∆)
39 | NCPHSDSTQLLETILEE [SSN2] | 2.81 ± 0.1 | 3.1 ± 0.088 | 3.11 ± 0.13 | 2.94 ± 0.063
40 | NDFANNLPKEGDIVLTR [CSL4] | 2.89 ± 0.15 | 3.32 ± 0.17 | 2.44 ± 0.12 | 2.97 ± 0.19
41 | NDLRDMILNYNPSQGVS [UBP6] | 2.21 ± 0.072 | 3.23 ± 0.12 | 3.16 ± 0.077 | 3.18 ± 0.064
42 | NDNNLKKLESQESLVKL [RPN5] | 3.01 ± 0.071 | 2.96 ± 0.064 | 2.76 ± 0.06 | 2.97 ± 0.071
43 | NDRKQTTVSNDLENSPL [SSN2] | 2.98 ± 0.079 | 3.11 ± 0.056 | 3.13 ± 0.041 | 3.08 ± 0.038
44 | NDSKEESTTEATGNESQ [YLR335W/NUP2] | – | 3.14 ± 0.18 | 2.97 ± 0.22 | 3.35 ± 0.1
45 | NEAEQVYLSLLDKDSSQ [RPN6] | 3.03 ± 0.2 | 3.29 ± 0.076 | – | 3.45 ± 0.22
46 | NEEATPIPSSETKADGI [RRP6] | 3.04 ± 0.053 | 3.18 ± 0.058 | 3.04 ± 0.049 | 3.01 ± 0.04
47 | NEGLVEYIDAEEEESIL [RPB2] | 3.36 ± 0.081 | 3.46 ± 0.085 | 3.24 ± 0.078 | 3.37 ± 0.087
48 | NEIANSIIQSKQDCVDW [BRR2] | 2.61 ± 0.069 | 2.87 ± 0.071 | 2.73 ± 0.071 | 2.88 ± 0.079
49 | NENENFGYDIPLLDIVL [YML103C/NUP188] | 2.48 ± 0.053 | 2.81 ± 0.064 | 2.92 ± 0.049 | 2.56 ± 0.056
50 | NENETRDKVCKQINEAR [PGD1] | 3.14 ± 0.14 | 3.58 ± 0.19 | 3.28 ± 0.079 | 3.09 ± 0.1
51 | NENSNCLLSIPKSTKGK [YML103C/NUP188] | 2.04 ± 0.05 | 1.99 ± 0.044 | 2.61 ± 0.05 | 2.35 ± 0.043
52 | NESSSNTTVISDKQRRL [DIS3] | 3.15 ± 0.086 | 3.21 ± 0.086 | 2.98 ± 0.061 | 3.05 ± 0.058
53 | NFEAVFERLVPRGTAKL [SMC3] | 2.93 ± 0.15 | 2.84 ± 0.16 | – | 2.83 ± 0.042
54 | NFEKILLTCYELEKKYH [SRB8] | 1.98 ± 0.1 | 2.34 ± 0.1 | – | 3.71 ± 0.21
55 | NFIEPGINQILGNEKNQ [CDC53] | – | – | – | 2.75 ± 0.2
56 | NFKGLAKEKERMLEEAI [YIL149C/MLP2] | 3.4 ± 0.095 | 3.56 ± 0.09 | 3.48 ± 0.071 | 3.38 ± 0.083
